The source of these data is publication PMC11604724 (MedComm, 2024).

In assay [1] the target is SARS‐CoV‐2 WT spike trimer protein (SARS-CoV-2, UniProt P0DTC2). In words: BLI. The conditions noted are these: both partners purified.
Assay [2] addresses extracellular domain of SARS‐CoV‐2 (WT) spike (S‐ECD) for cryo-EM (SARS-CoV-2 WT, proline mutation at residue 986 | proline mutation at residue 987, N-linked glycans (Asn17, Asn122, Asn165 and others)). In words: cryo-EM structure. To be noted: both partners purified.

B1: mAb 26434 (antibody, V domains shown)
VH: QVQLQQSGAEVKKPGASVKVSCKASGYTFSRYGISWVRQAPGQGLEWMGWISAYKGNTNYAQKFQGRVTMTTDTSTSTAYMELRSLRSDDTAVYYCARSPPDFLGWFDPWGQGTLVTVSS
VL: LPVLTQPPSVSVSPGQTASITCSGDKLGDKFTCWYQQKPGQSPVQVIYQDTHRPSGIPERFSGSNSGNTATLTISGTQAVDEADYYCQAWDSSTVIFGGGTKLTVL
Broadly, the Kd is the free concentration of one partner at which half of the binding sites on the other are occupied at equilibrium, for simple one-to-one binding. A high value points to a looser complex. In the case of B1, the Kd in assay [1] worked out at 670 nM.

B2: mAb 3711 (antibody, V domains shown)
VH: EVQLVESGGGLVKPGRSLRLSCAASGFTFSDYYMSWIRQAPGKGLEWVSYISSSGSTIYYADSVRGRFTISRDNAKNSLYLQMNTLRAEDTAVYYCARGGWELRSLAGGYYGMDVWGQGTTVTVSS
VL: DIVMTQTPFTLSASVGDRVTITCRASQGIRNDLGWYQQKPGKAPKCLIYAASSLLSGVPSRFSGSGSGTEFTLTISSLQPEDFATYYCLQHNSYPWTFGQGTKLEIK
Usually stoichiometry N stands for the number of molecules, sites or subunits per partner or assembly. Consider B2, for which the “stoichiometry N” value in assay [2] is 3 Fabs per spike trimer.
